B1: ECB5: bispecific P53A1R5-17v2 / P114AR7P94-A3, (GGGGS)4, SEQ ID 54 (protein)
chain: MLPAPKNLVVSEVTEDSARLSWADPHGFYDSFLIQYQESEKVGEAIVLTVPGSERSYDLTGLKPGTEYTVSIYGVHNVYKDTNMRGLPLSAIFTTGGGGSGGGGSGGGGSGGGGSMLPAPKNLVVSRVTEDSARLSWTAPDAAFDSFWIRYFEFLGSGEAIVLTVPGSERSYDLTGLKPGTEYVVNIMGVKGGKISPPLSAIFTT
modifications: bispecific EGFR/cMet binding molecule
B2: P54CR4-31: EGFR-binding FN3 domain, SEQ ID NO: 26 (protein)
chain: LPAPKNLVVSEVTEDSLRLSWTAPDAAFDSFLIQYQESEKVGEAINLTVPGSERSYDLTGLKPGTEYTVSIYGVLGSYVFEHDVMLPLSAEFTT
modifications: EGFR binding FN3 domain

Columns and labels:
EGFR in NCI-H596 cells = biological target: T1, EGFR in NCI-H596 cells (Homo sapiens, UniProt P00533); assay: Inhibition of EGFR phosphorylation in NCI-H596 cells; assay type: cell-based; details: H596 cells (FIG. 7B)
T1 construct: endogenous in cells; host or cells: NCI-H596
Description: NCI-H292, NCI-H441, or NCI-H596 cells were plated in 96 well plates in RPMI medium containing 10% FBS. 24 hours later, medium was replaced with serum free RPMI. […] Cells were treated for 1 h with the monospecific or bispecific molecules and then stimulated with EGF, HGF, or a combination of EGF and HGF for 15 minutes at 37° C., 5% CO2. Cells were lysed with MSD Lysis Buffer and cell signaling was assessed using appropriate MSD Assay plates, according to manufacturer's instructions, as described above.

EGFR in NCI-H292 cells = biological target: T2, EGFR in NCI-H292 cells (Homo sapiens, UniProt P00533); assay: Inhibition of EGFR phosphorylation in NCI-H292 cells; assay type: cell-based; details: H292 cells (FIG. 7A)
T2 construct: EGF-stimulated phosphorylation of EGFR in the human tumor cell line NCI-H292; host or cells: NCI-H292
Description: Purified EGFR-binding FN3 domains were tested for their ability to inhibit EGF-stimulated phosphorylation of EGFR in A431 cells at a single concentration. EGFR phosphorylation was monitored using the EGFR phospho(Tyr1173) kit (Meso Scale Discovery). Cells were plated at 20,000/well in clear 96-well tissue culture-treated plates (Nunc) in 100 μL/well of RPMI medium (Gibco) containing GlutaMAX™ with 10% fetal bovine serum (FBS) (Gibco) and allowed to attach overnight at 37° C. in a humidified 5% CO2 atmosphere. Culture medium was removed completely and cells were starved overnight in 100 μL/well of medium containing no FBS at 37° C. in a humidified 5% CO2 atmosphere. […] Signals were detected by addition of 150 μL/well of Read Buffer (Meso Scale Discovery) and reading on a SECTOR® Imager 6000 instrument (Meso Scale Discovery) using manufacturer-installed assay-specific default settings. Percent inhibition of the EGF-stimulated positive control signal was calculated for each EGFR-binding FN3 domain.
NCI-H292, NCI-H441, or NCI-H596 cells were plated in 96 well plates in RPMI medium containing 10% FBS. […] Cells were lysed with MSD Lysis Buffer and cell signaling was assessed using appropriate MSD Assay plates, according to manufacturer's instructions, as described above. […]

EGFR on A431 cells = biological target: T3, EGFR on A431 cells (Homo sapiens, UniProt P00533); assay: A431 cell binding assay; details: purified FN3 domains
T3 construct: A431 cells (American Type Culture Collection, cat. # CRL-1555) over-express EGFR; host or cells: A431
Description: To assess the ability of different FN3 domains to bind EGFR in a more physiological context, their ability to bind A431 cells was measured. A431 cells (American Type Culture Collection, cat. # CRL-1555) over-express EGFR with ˜2×10^6 receptors per cell. Cells were plated at 5,000/well in opaque black 96-well plates and allowed to attach overnight at 37° C., in a humidified 5% CO2 atmosphere. FN3 domain-expressing bacterial lysates were diluted 1,000-fold into FACS stain buffer (Becton Dickinson) and incubated for 1 hour at room temperature in triplicate plates. Lysates were removed and cells were washed 3 times with 150 μL/well of FACS stain buffer. Cells were incubated with 50 μL/well of anti-penta His-Alexa488 antibody conjugate (Qiagen) diluted 1:100 in FACS stain buffer for 20 minutes at room temperature. Cells were washed 3 times with 150 μL/well of FACS stain buffer, after which wells were filled with 100 μL of FACS stain buffer and read for fluorescence at 488 nm using an Acumen eX3 reader. […]
A431 cells were plated at 5,000/well in opaque black 96-well plates and allowed to attach overnight at 37° C., in a humidified 5% CO2 atmosphere. […] Cells were washed 3 times with 150 μL/well of FACS stain buffer, after which wells were filled with 100 μL of FACS stain buffer and read for fluorescence at 488 nm using an Acumen eX3 reader. […]

Molecule | inhibition of phosphorylation of EGFR, bispecific vs monospecific (EGFR in NCI-H596 cells) | inhibition of phosphorylation of EGFR, bispecific vs monospecific (EGFR in NCI-H292 cells) | EC50 (EGFR on A431 cells) [µM]
B1 | comparable | comparable | 
B2 |  |  | > 20
